We go through one molecule from patent US12098378B2, “Anti-fungal polypeptides” (priority 2020, dated 2024).

One experiment has as its system Botrytis cinerea R16. The experiment is described as follows: In vitro antifungal assay, IncuCyte Zoom monitoring of fungal growth from spore suspension. Format: cell-based. Particulars: confluence at mid log growth, four-parameter logistic regression (FIG. 1); read-out: IC50, concentration that inhibits 50% of spore germination and/or mycelial growth. The protocol: Two-fold dilutions of purified VHH 10G11Q were prepared in 96-well microtiter plates. To 20 μl of these dilutions and to 20 μl of water as a control, 80 μl of fungal spore suspension (1 E+05 spores/ml in half strength potato dextrose broth (PDB)) were added, starting with a final VHH 10G11Q concentration of 10 μM. The test plates were incubated for 36 h at 25° C. using the IncuCyte Zoom live cell imaging system. All tests were performed in at least 2 replicates.
Two-fold dilutions of purified VHH 10G11Q and 41D01 were prepared in 96-well microtiter plates. To 20 μl of these dilutions and to 20 μl of water as a control, 80 μl of fungal spore suspension (1 E+05 spores/ml in half strength potato dextrose broth (PDB)) were added, starting with a final VHH 10G11Q concentration of 40 μM. The test plates were incubated for 48 h at 25° C. using the IncuCyte Zoom live cell imaging system. All tests were performed in at least 2 replicates.
Microplate graphs were generated using the time plot feature in the graph/export menu of the IncuCyte® Base Analysis Software. Raw data for confluence of treated samples at mid log growth were exported to GraphPad Prism 8 and plotted as a semi logarithmic function of the standard concentrations. IC50 values are extrapolated after fitting the data with a four-parameter logistic regression curve. Pathogen sensitivity is measured based on the IC50, which refers to the concentration (μM) that inhibits 50% of spore germination and/or mycelial growth.

The subject of experiment [1] is liposomes from Fraction 3 of Botrytis cinerea lipid extract. Description: Interaction with DPH-containing liposomes (fluorescence). Format: binding. As to conditions: Fraction 3 liposomes (FIG. 11). As to the method:
(§1) In order to investigate the putative interaction partner of 10G11 and its variants, lipids were extracted from Botrytis cinerea hyphae as described in Example 1. For the further fractionation of the total lipid extract thin-layer chromatography was used (TLC; Skipski et al (1965), Biochimica et Biophysica Acta, 106(2): 386-396). The extract was spotted on a silica gel glass plate and run in a chromatography tank filled with 100 mL of the chloroform/methanol mixture (85/15, v/v). Lipid bands separated by TLC were stained with alpha-naphthol enabling visual detection of lipids. Four fractions were identified (FIG. 10): Fraction 1, the fraction of polar lipids; Fraction 2, with a Retention Factor (Rf) similar to the glucosylceramide reference standard (GlcCer from Tamogitake), likely to be ceramides; Fraction 3, with a slightly higher Rf than the reference standard; and Fraction 4, the non-polar phospholipids (PLs). For obtaining sufficient material from the separate Fractions, normal-phase flash chromatography can be used (Gorden, M. H. (2015). Encyclopedia of Analytical Science (Second edition), Elsevier). The TLE was therefore dissolved in CH2Cl2 by addition of a few drops of MeOH and loaded onto a 4 g normal phase flash cartridge with 15 μm particles. The column was run with CH2Cl2/MeOH (85/15, v/v) as the eluent. Finally, Fractions were filtered through a 0.45 μm syringe filter (nylon membrane), and dried. Hereafter, liposomes from the true lipid extract and its individual fractions were prepared via the thin-film hydration method with the addition of 1,6-diphenyl-1,3,5-hexatriene (DPH) (Trucillo et al, 2020. Processes 8(9):1022; Zhang, 2017. Liposomes 1522:1 7-22). […] Any disruption of the lipid membranes would lead to a decrease in fluorescent signal. Hereafter, the interaction of 10G11 with these liposomes was tested.

Experiment [2] relates to liposomes from Fraction 4, the non-polar phospholipids (PLs), of Botrytis cinerea lipid extract. Described as above. In kind it is binding. As to conditions: Fraction 4 liposomes (FIG. 11). As to the method:
as §1

In experiment [3] the test system is liposomes from total lipid extract (TLE) of Botrytis cinerea hyphae. The experiment is described as above. Format: binding. As to the method:
as §1

The subject of a further experiment is Fraction 3. Description: Bio-layer interferometry (BLI) binding. The arrangement: species or system Botrytis cinerea. Particulars: compared to a reference VHH (FIG. 12). The source says: 10G11 binding to Fraction 3 was further confirmed by bio-layer interferometry (BLI). BLI is a label-free optical analytical technique for measuring biomolecular interactions (Kamat et al, 2017. Analytical biochemistry 536: 16-31; Wallner et al. 2013. Journal of Pharmaceutical and Biomedical Analysis 72: 150-154).
(Biolayer interferometry detects binding as a change in optical thickness at a sensor tip.)

In the next experiment the test system is Phakopsora pachyrhizi. The experiment is described as follows: Control of soybean rust on soybeans in glasshouse. In kind it is in vivo. As to the method: Four replicates of pot-grown soybean plants (4 plants/pot) were sprayed with 125 ml aqueous suspension, containing a concentration of active ingredient of as described in Table 1. Two applications were done spaced 14 days apart. Plants were inoculated once with Phakopsora pachyrhizi two days after the first application (application A) of active ingredient. The growth inhibitory characteristics of 10G11Q were compared to those of a non-antifungal reference VHH molecule, a non-treated control and the systemic chemical Quadris Top SBX (azoxystrobin, difeconazole).
Disease severity is recorded as percent severity on a scale of 0-100%. Recording started when first symptoms appear followed by weekly assessment at least till 3 weeks after the second application (application B) of the active ingredient. Percent severity ratings are separated based on the position on the plant: Percent severity low canopy, Percent severity mid canopy and Percent severity upper canopy to track the progress of the disease well and following the natural development of the disease in nature.
Time indications in the graphs on the x-axis concern the time of recording of disease severity or incidence. These are relative and are indicated by the number of days after application when recording occurred. For example, a recording 13 Days After the second application (application B) will be represented as 13DAB. This code is applicable for FIG. 15 to FIG. 28.

For another experiment, the system named is Podosphaera xanthii. Description: Control of powdery mildew on cucumber in greenhouse. Format: in vivo. As to the method:
Four replicates of 10 plants per plot of cucumber plants (4 m^2 per plot) were treated with a spray volume between 1000 and 18751/ha depending on the crop height. The spray mix contained a concentration of active ingredient as described in Table 8. Eight applications were performed spaced 7 days apart. No artificial infection was performed and first spray was placed at the onset of flowering. The efficacy of 10G11 was compared to that of a non-treated control, a chemical reference Topaz (Penconazole), a biological reference Sonata (Bacillus pumilis strain QST 2808) in combination with the adjuvant Elasto G5 and a chemical rotation of Takumi (Cyflufenamid), Flint (Trifloxystrobin) and Topaz.
Efficacy assessments were performed on 40 leaves per plot, assessing the percentage of leaf area affected (PESSEV). Assessments were performed on a weekly basis and continued until two weeks after the last application.

B1: 10G11: VHH polypeptide, SEQ ID NO: 2, begins with a D residue (protein)
VHH: DVQLVESGGGLVQAGGSLRLSCAASRSIFSINAMDWYRQAPGKQREWVAGITRGGTTKYADSVKGRFTISRDNAKKKVYLQMNSLKPEDTAVYYCNVLRGEQPWTRDYWGQGTQVTVSS
For B1, in the experiment on Botrytis cinerea R16, the IC50 stood at 760 ± 100 nM. The “interaction with lipids in liposomes (DPH fluorescence)” value in experiment [1], in experiment [2] and in experiment [3] (total lipid extract (TLE) liposomes (FIG. 11)) was “interacts” throughout. Also, the “membrane disruption of liposome vesicles” value in experiment [3] (stated generally for the liposomes with which 10G11 interacts (FIG. 11)) is “breakage of the vesicles”. Further, the “binding to Fraction 3 by BLI” value in the experiment with Fraction 3 is recorded as “confirmed binding”. In the experiment on Phakopsora pachyrhizi (250, 500, 750 g ai/ha, 2 applications, until 3 weeks after the second application, vs reference VHH and non-treated inoculated control (FIG. 15)), the “percent severity of Asian soybean rust, lower canopy” value was “prominent and dose-related growth inhibition pattern”. Besides, the “percent severity of Asian soybean rust, mid canopy” value in the experiment with Phakopsora pachyrhizi (250, 500, 750 g ai/ha, 2 applications, until 3 weeks after the second application, vs reference VHH and non-treated inoculated control (FIG. 16)) is “prominent and dose-related growth inhibition pattern”. The “percent severity of Asian soybean rust, upper canopy” value in the experiment with Phakopsora pachyrhizi (250, 500, 750 g ai/ha, 2 applications, until 3 weeks after the second application, vs reference VHH and non-treated inoculated control (FIG. 17)) is “prominent and dose-related growth inhibition pattern”. Besides, in the experiment on Phakopsora pachyrhizi (750 g ai/ha), the “activity compared with chemical reference Quadris Top SBX” value is on record as “on par”. In addition, the “severity (PESSEV) of powdery mildew on cucumber” value is “clear and dose-related performance” in the experiment with Podosphaera xanthii (125, 250, 500 g ai/ha LWA, until 1 week after the seventh application (FIG. 28)); “Performance decreased” in the experiment on Podosphaera xanthii (from the eighth application, very severe disease pressure (FIG. 28)).
